These results are taken from publication PMC11955550.

The target of test [1] is α-synuclein (αSyn) amyloid fibrils (UniProt P37840). As to the kind of experiment: co-sedimentation; αSyn fibrils 20 µM (monomer) with DNAJB1 8 µM in HKMD buffer (50 mM HEPES, 50 mM KCl, 5 mM MgCl2, 2 mM DTT, pH 7.50), 30 min at 30 °C; 17,000 g 30 min; pellet and supernatant on SDS-PAGE, densitometry.
Test [2] shares this target. Put plainly: co-sedimentation; αSyn fibrils 20 µM (monomer) with DNAJB1 8 µM in low-salt HD buffer (50 mM HEPES, 2 mM DTT, pH 7.50), 30 min at 30 °C; 17,000 g 30 min; pellet and supernatant on SDS-PAGE, densitometry.

Take “wild-type DNAJB1 (from UniProt P25685 1-340) (natural protein)”: the figures for the percent bound in test [1] and in test [2] were 40% and 80%, respectively.
